“And” between values parts separate entries of the source, which are not always exact repeats. Equal values may be shown once.
Conditions: Canis lupus familiaris, Thermal, DSC, reversible: yes, whole UniProt chain shown
[1] = pH 1.95, glycine hydrochloride 50 mM, transition: 3
[2] = pH 4.5, 66.4 °C, sodium acetate 50 mM

B1: Lysozyme C, milk isozyme wild type, P81708 (protein)
chain: KIFSKCELARKLKSMGMDGFHGYSLANWVCMAEYESNFNTQAFNGRNSNGSSDYGIFQLNSKWWCKSNSHSSANACNIMCSKFLDDNIDDDIACAKRVVKDPNGMSAWVAWVKHCKGKDLSKYLASCNL
- Tm [1]: 60 °C
- unfolding enthalpy (calorimetric) [1]: 124 kJ/mol
- unfolding enthalpy (calorimetric) (pH 2.74, glycine hydrochloride 50 mM, transition: 3): 89.3 kJ/mol and 158 kJ/mol
- unfolding enthalpy (calorimetric) (pH 3, glycine hydrochloride 50 mM, transition: 3): 133 kJ/mol and 154 kJ/mol
- unfolding enthalpy (calorimetric) (pH 3.24, glycine hydrochloride 50 mM, transition: 3): 149 kJ/mol and 180 kJ/mol
- unfolding enthalpy (calorimetric) (pH 3.46, glycine hydrochloride 50 mM, transition: 3): 158 kJ/mol and 176 kJ/mol
- unfolding enthalpy (calorimetric) [2]: 129 kJ/mol
- unfolding free energy [2]: 9 kJ/mol
- unfolding enthalpy (calorimetric) (pH 4.5, sodium acetate 50 mM, CaCl2 10 mM, transition: 3): 282 kJ/mol and 186 kJ/mol
- unfolding enthalpy (calorimetric) (pH 4.5, sodium acetate 50 mM, transition: 3): 176 kJ/mol and 186 kJ/mol

— FireProtDB (doi:10.1093/protein/14.12.967)
